Data taken from patent publication KR20220167207A.

T1: CADM1 peptide structure expressed on cells (CADM1 peptide, Myc tag, hinge, transmembrane domain, GFP) (human)
T1 sequence: DSRAGEEGSIRAVDH


Tests used:
[1] = target: CADM1 on small cell lung cancer cell lines H146 and H69 (human) (UniProt Q9BY67); test: flow cytometry, 1 ug scFv on 5x10^5 H69 cells, PE anti-HA
[2] = target: T1, CADM1 peptide structure expressed on cells (CADM1 peptide, Myc tag, hinge, transmembrane domain, GFP) (human); test: flow cytometry, 1 ug scFv on 5x10^5 cells with the CADM1 peptide structure, PE anti-HA
[3] = target: CADM1 on small cell lung cancer cell lines H146 and H69 (human) (UniProt Q9BY67); test: flow cytometry, 1 ug scFv on 5x10^5 H146 cells, PE anti-HA

| Binder | 결합력 % [1] [%] | 결합력 % [2] [%] | 결합력 % [3] [%] |
| --- | --- | --- | --- |
| 4A2 (scFv, V domains shown) VH: AVTLDESGGGLQTPGRALSLACKGSGFTFSSYAMNWVRQAPGKGLEFVAQITSSGRYTYYGTAVKGRATISRDNGQSTVRLQLNNLRAEDSGTYYCAKDAAAGYYDGATAGDIDAWGHGTEVIVSS VL: LTQPSSVSANPGETVKITCSGGYNRYGWYQQKSPGSAPVTVIYSNNQRPSNIPSRFSGSKSGSTATLTITGVQAEDEAVYYCGSYDSSDGYAGIFGAGTTLTVL | 29.1 | 16.3 | 10.2 |
| RB11 (scFv, V domains shown) VH: AVTLDESGGGLQTPGGGLSLVCKGSGFTFSSYAMNWVRQAPGKGLEFVAQITSSGRYTYYGTAVKGRATISRDNGQSTVRLQLNNLRAEDSGTYYCAKDAAAGYYDGATAGDIDAWGHGTEVIVSS VL: LTQPSSVSANPGGTVKITCSGGSGSYGWFQQKAPGSAPVTLIYANTNRPSDIPSRFSGSKSGSTATLTITGVQVEDEAVYYCGSTDSSYVSIFGAGTTLTVL | 61.8 | 16 | 33.6 |

Results, then the binder that gave them:

| 결합력 % [1] [%] | 결합력 % [2] [%] | 결합력 % [3] [%] | Binder |
| --- | --- | --- | --- |
| 61.1 | 14.7 | 9.7 | 4A8 (scFv, V domains shown) VH: AVTLDESGGGLQTPGGGLSLVCKASGFTFSSYAMNWVRQAPGKGLEFVAQITSSGRYTYYGTAVKGRATISRDNGQSTVRLQLNNLRAEDSGTYYCAKDAAAGYYDGATAGDIDAWGHGTEVIVSS VL: LTQPSSVSANLGGTVKITCSGGSGSNHYGWYQQKSPGSAPVTVIYSNNKRPSNIPSRFSGSKFGSTATLTITGVQADDEAVYYCGGYDSSAGYIGPFGAGTTLTVL |
| 12 | 15.3 | 4.5 | RH6 (scFv, V domains shown) VH: AVTLDESGGGLQTPGGGLSLVCKGSGFTFSSYAMNWVRQAPGKGLEFVAQITSSGRYTYYGTAVKGRATISRDNGQSTVRLQLNNLRAEDSGTYYCAKDAAAGYYDGATAGDIDAWGHGTEVIVSS VL: VTQPSSVSANPGESVKITCSGGSYSYGWYQQKSPGSAPVTVIYSNNQRPSNIPSRFSGSTSGSTSTLTITGVQADDEAVYFCGTFDSSTNAAFGAGTTLTVL |
